Source: PMC9479348 (Journal of Nanobiotechnology, 2022)

Target: lysozyme (UniProt P00698)
Experiment: ELISA; phage ELISA: lysozyme immobilised in a 96-well NUNC Maxisorp plate; 1ZVH displayed on phage
Details: one partner purified

Chain of lysozyme (P00698 19-147): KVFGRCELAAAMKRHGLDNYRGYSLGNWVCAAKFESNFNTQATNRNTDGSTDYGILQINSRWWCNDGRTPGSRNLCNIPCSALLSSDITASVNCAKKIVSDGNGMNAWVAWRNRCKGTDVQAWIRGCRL

B1: camel nanobody 1ZVH, displayed on phage (VHH)
VHH: DVQLVESGGGSVQAGGSLRLSCAASGYIASINYLGWFRQAPGKEREGVAAVSPAGGTPYYADSVKGRFTVSLDNAENTVYLQMNSLKPEDTALYYCAAARQGWYIPLNSYGYNYWGQGTQVTVSS
notes: also called template of the ASyNAL library
binding result: binds
